According to publication PMC7083227:
Where two headings read alike, the source gives them in different places. One block for each substance: values may come before it.

Columns and labels:
[1] = biological target: Vγ9Vδ2 TCR (soluble, biotinylated; clone not stated for this experiment) (human); experiment: SPR; BIAcore3000; biotinylated TCRs (2000-3000 RU) captured on streptavidin-coated CM5 chips; BTN IgV domain injected as analyte, 1-200 μM; HBS-EP buffer; equilibrium affinity measurements
[2] = biological target: Vγ9Vδ2 TCR (soluble, biotinylated; clone not stated for this experiment) (human); experiment: as above; remark: listed apart in the source
[3] = biological target: Vγ9Vδ2 TCR (soluble, biotinylated; clone not stated for this experiment); experiment: SPR; settings: parent: est. 1.0; read off a plot
[4] = biological target: MOP Vγ9Vδ2 TCR (soluble, biotinylated) (human); experiment: SPR; BIAcore3000; biotinylated TCRs (2000-3000 RU) captured on streptavidin-coated CM5 chips; BTN IgV domain injected as analyte, 1-200 μM; HBS-EP buffer; equilibrium affinity measurements
[5] = biological target: Vγ9Vδ1 TCR (soluble, biotinylated) (human); experiment: as above
[6] = biological target: MOP Vγ9Vδ2 TCR (soluble, biotinylated) (human); experiment: as above; remark: listed apart in the source
[7] = biological target: Vγ9Vδ1 TCR (soluble, biotinylated) (human); experiment: as above; remark: listed apart in the source
[8] = biological target: BTN2A1 peptide on (human); experiment: SPR, equilibrium affinity; biotinylated TCR captured on a streptavidin chip, BTN2A1 IgV as analyte; soluble, other
[9] = biological target: BTN2A1 peptide on (human); experiment: SPR, equilibrium affinity and Scatchard analysis; representative experiment of Figure 3B; soluble, other

Kd [1]: 11 to 15 µM | Kd [2]: 10 to 15 µM
Substance: BTN2A1 IgV S72A (from UniProt Q7KYR7 27-142) (domain or fragment)

Kd [1]: 100 µM
Substance: BTN2A1 IgV K79A (from UniProt Q7KYR7 27-142) (domain or fragment)

ratio to parent [3]: 0.8
Substance: BTN2A1 IgV (from UniProt Q7KYR7) Y133A

Kd [4]: 49.9 µM | Kd [5]: 46.6 µM | Kd [6]: 48.4 µM | Kd [7]: 47.9 µM
Substance: BTN2A1 IgV (from UniProt Q7KYR7 27-142) (domain or fragment)

Kd [8]: 49.9 µM | Kd [9]: 48.4 µM
Substance: Vγ9Vδ2 MOP TCR
